Results reported in patent publication US12214046B2, “Protein-loaded PLGA nanospheres” (West Virginia University Board of Governors on behalf of …, priority 2019, dated 2025).

Assay: In vivo induction of free IL-12 toxicity in healthy mice (blood immunophenotyping by flow cytometry)
Design: species or system BALB/c mice
Conditions: 100 ng or 100 ug retro-orbital, baseline vs 48 h
Method: Red blood cells were lysed with Red Blood Cell (RBC) Lysis Solution (Miltenyi Biotec, Auburn, CA). Single cell suspensions were split and incubated with optimized lymphoid (L) and myeloid (M) antibody panels according to the manufacturer's instructions: a minimum of 1×104 events were analyzed for each sample.
Two groups of four BALB/c mice (two female and two male per group) were cheek bled by piercing the facial venous plexus with a sterile 4 mm Goldenrod Animal Lancet (Braintree Scientific. Braintree. MA) to gather 100 μL whole blood for baseline immunophenotyping. Immediately following cheek bleeds, each group was given a retro-orbital (r.o.) injection of either a low (100 ng) or high (100 ug) dose of free recombinant mouse (rm) IL-12 (eBiolegend. San Diego. CA) with 0.1% mouse serum albumin (MSA. Sigma. St. Louis, MO) in 150 μL DPBS. At 24 and 48 hours following r.o. injections, mice underwent additional cheek bleeds for immunophenotyping.
Twelve BALB/c mice were cheek bled for 100 μL whole blood (baseline) before being dosed with either 100 ng (L: low dose) or 100 ug (H: high dose) of recombinant mouse (rm) IL-12 via retro-orbital (r.o.) injection. Mice were cheek bled again at 24 and 48 hours (48 h), and blood samples were immunophenotyped via flow cytometry. CD8^−CD4^+ helper T cells (left, white). CD4^−CD8^+ cytotoxic T cells (middle, gray), and CD8^−CD4^+FOXP3^+CD25^+/− regulatory T cells (right. black) were assessed for the extent of PD1^+TIM-3^+ positivity, which can be indicative of exhaustion. Shown in FIG. 17 are T cell data from baseline and 48 h time points. Individual bars (top half) represent group averages+SD. […] Baseline blood samples (n=4:2 male and 2 female per group) were compared to 48 h samples using unpaired two-tailed/tests, * p<0.05, ** p<0.01. *** p<0.001.
Twelve BALB/c mice were cheek bled for 100 μL whole blood (baseline) before being dosed with either 100 ng (L: low dose) or 100 ug (H: high dose) of recombinant mouse (rm) IL-12 via retro-orbital (r.o.) injection. […]

B1: IL-12: Recombinant mouse IL-12 (p70), immunostimulatory cytokine, purchased from Biolegend (protein, UniProt P43431 23-215; P43432 23-335, looked up)
Interleukin-12 subunit alpha: RVIPVSGPARCLSQSRNLLKTTDDMVKTAREKLKHYSCTAEDIDHEDITRDQTSTLKTCLPLELHKNESCLATRETSSTTRGSCLPPQKTSLMMTLCLGSIYEDLKMYQTEFQAINAALQNHNHQQIILDKGMLVAIDELMQSLNHNGETLRQKPPVGEADPYRVKMKLCILLHAFSTRVVTINRVMGYLSSA
Interleukin-12 subunit beta: MWELEKDVYVVEVDWTPDAPGETVNLTCDTPEEDDITWTSDQRHGVIGSGKTLTITVKEFLDAGQYTCHKGGETLSHSHLLLHKKENGIWSTEILKNFKNKTFLKCEAPNYSGRFTCSWLVQRNMDLKFNIKSSSSSPDSRAVTCGMASLSAEKVTLDQRDYEKYSVSCQEDVTCPTAEETLPIELALEARQQNKYENYSTSFFIRDIIKPDPPKNLQMKPLKNSQVEVSWEYPDSWSTPHSYFSLKFFVRIQRKKEKMKETEEGCNQKGAFLVEKTSTEVQCKGGNVCVQAQDRYYNSSCSKWACVPCRVRS
  effect on PMN-MDSC in peripheral blood: Polymorphonuclear-Myeloid-Derived Suppressor Cell (PMN-MDSC) Myelocytosis
  effect on T lymphocyte subsets in peripheral blood (PD1+TIM-3+ positivity): T cell exhaustion of helper, cytotoxic, and regulatory T lymphocyte subsets
  effect on circulating Natural Killer (NK) cells: Decrease of Circulating Natural Killer (NK) Cells
